According to article PMC10794413:

Target: Hsp90 (hsp82 gene from Saccharomyces cerevisiae) with a C-terminal coiled-coil domain (Saccharomyces cerevisiae)

- ATPase rate of Hsp90 with freely added Cdc37 and equimolar Ste11: Cdc37's reducing effect is abrogated: 1.1 ATP/min
B1: free Cdc37 with the S14E phosphomimic (natural protein)
chain: MAIDYSKWDKIELEDDSDVEVHPNVDKKSFIKWKQQSIHEQRFKRNQDIKNLETQVDMYSHLNKRVDRILSNLPESSLTDLPAVTKFLNANFDKMEKSKGENVDPEIATYNEMVEDLFEQLAKDLDKEGKDSKSPSLIRDAILKHRAKIDSVTVEAKKKLDELYKEKNAHISSEDIHTGFDSSFMNKQKGGAKPLEATPSEALSSAAESNILNKLAKSSVPQTFIDFKDDPMKLAKETEEFGKISINEYSKSQKFLLEHLPIISEQQKDALMMKAFEYQLHGDDKMTLQVIHQSELMAYIKEIYDMKKIPYLNPMELSNVINMFFEKVIFNKDKPMGKESFLRSVQEKFLHIQKRSKILQQEEMDESNAEGVETIQLKSLDDSTELEVNLPDFNSKDPEEMKKVKVFKTLIPEKMQEAIMTKNLDNINKVFEDIPIEEAEKLLEVFNDIDIIGIKAILENEKDFQSLKDQYEQDHEDATMENLSLNDRDGGGDNHEEVKHTADTVD
